From patent publication US20150246949A1, “Desmoglein 2 (DSG2) Binding Proteins and Uses Therefor” (UNIVERSITY OF WASHINGTON THROUGH ITS CENTER FOR …, priority 2012, published 2015)

T1: Recombinant human DSG2 protein (Leinco Technologies) (human, UniProt Q14126 50-609)
T1 construct: also called soluble DSG2; soluble recombinant DSG2
T1 sequence: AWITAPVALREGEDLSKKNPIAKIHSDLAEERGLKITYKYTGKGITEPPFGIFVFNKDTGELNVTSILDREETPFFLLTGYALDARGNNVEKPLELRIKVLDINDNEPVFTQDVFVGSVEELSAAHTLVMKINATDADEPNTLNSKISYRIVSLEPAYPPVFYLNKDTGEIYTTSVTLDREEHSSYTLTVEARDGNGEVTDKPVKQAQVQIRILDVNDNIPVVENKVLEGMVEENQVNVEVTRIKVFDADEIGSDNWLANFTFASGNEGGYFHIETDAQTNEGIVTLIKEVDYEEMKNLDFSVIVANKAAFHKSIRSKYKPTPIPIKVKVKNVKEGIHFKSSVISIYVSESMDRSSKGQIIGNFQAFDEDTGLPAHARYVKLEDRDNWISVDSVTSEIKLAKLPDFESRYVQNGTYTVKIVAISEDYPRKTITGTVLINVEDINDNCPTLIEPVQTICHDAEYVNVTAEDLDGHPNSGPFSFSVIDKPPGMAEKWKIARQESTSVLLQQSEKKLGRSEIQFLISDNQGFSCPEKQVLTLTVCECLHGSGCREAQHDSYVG

T2: human DSG2 on cells (HeLa cells; polarized T84 cells) (human, UniProt Q14126 50-1118)
T2 sequence: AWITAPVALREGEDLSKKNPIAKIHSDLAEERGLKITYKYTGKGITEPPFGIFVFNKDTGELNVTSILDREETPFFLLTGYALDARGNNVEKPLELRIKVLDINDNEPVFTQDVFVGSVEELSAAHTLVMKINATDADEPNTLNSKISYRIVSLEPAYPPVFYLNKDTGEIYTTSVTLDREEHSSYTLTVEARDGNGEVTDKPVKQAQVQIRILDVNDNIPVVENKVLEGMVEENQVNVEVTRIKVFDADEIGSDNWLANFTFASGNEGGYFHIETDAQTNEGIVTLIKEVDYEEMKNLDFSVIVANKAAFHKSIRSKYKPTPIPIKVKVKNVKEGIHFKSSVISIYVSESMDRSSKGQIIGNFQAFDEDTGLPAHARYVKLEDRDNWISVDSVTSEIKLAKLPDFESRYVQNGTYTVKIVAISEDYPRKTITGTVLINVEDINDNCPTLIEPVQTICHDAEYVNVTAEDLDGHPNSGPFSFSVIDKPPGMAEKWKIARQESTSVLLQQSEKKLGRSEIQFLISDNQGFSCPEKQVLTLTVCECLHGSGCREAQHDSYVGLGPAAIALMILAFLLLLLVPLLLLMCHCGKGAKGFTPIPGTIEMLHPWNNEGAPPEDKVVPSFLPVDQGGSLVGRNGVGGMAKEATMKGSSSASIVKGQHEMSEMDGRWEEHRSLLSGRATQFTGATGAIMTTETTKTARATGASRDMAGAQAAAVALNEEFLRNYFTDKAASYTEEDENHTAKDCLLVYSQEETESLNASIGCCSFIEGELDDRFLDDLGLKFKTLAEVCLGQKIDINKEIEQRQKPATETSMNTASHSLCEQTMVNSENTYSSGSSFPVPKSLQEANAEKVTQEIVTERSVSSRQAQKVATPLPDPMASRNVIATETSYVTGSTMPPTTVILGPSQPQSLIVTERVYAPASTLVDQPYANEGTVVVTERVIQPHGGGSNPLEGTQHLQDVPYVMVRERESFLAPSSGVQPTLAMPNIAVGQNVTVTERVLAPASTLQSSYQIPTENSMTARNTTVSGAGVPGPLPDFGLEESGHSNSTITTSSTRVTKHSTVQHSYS

T3: soluble recombinant DSG2 (Homo sapiens, UniProt Q14126)
T3 construct: purchased Leinco Technologies, Inc. (St. Louis, Mo.)
T3 sequence (Q14126 50-609 limits assumed): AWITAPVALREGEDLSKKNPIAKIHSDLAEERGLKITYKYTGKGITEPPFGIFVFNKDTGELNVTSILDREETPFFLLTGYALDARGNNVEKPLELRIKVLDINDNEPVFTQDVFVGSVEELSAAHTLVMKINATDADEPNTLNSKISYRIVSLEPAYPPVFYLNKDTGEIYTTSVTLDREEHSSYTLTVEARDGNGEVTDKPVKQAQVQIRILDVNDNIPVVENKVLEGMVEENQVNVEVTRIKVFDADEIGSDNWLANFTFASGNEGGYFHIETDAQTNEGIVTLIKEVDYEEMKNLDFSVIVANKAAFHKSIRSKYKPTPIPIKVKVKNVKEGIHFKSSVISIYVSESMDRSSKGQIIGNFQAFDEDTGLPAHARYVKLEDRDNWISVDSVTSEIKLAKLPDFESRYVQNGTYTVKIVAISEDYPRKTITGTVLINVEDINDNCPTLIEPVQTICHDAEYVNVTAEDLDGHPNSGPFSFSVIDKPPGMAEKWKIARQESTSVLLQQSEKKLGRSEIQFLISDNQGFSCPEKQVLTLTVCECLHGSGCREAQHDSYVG


Tests used:
[1] = target: T1, Recombinant human DSG2 protein (Leinco …); assay: Western blot of dimeric knob (trimer band), soluble recombinant DSG2 as probe, anti-DSG2 mAb
[2] = target: T1, Recombinant human DSG2 protein (Leinco …); assay: Western blot of dimeric knob, soluble DSG2 as probe (Table 2: 0% residual binding)
[3] = target: T2, human DSG2 on cells (HeLa cells; …); assay: cell-based or functional assay
[4] = target: T2, human DSG2 on cells (HeLa cells; …); assay: attachment of 3H-labelled Ad3 virus (competitor) to HeLa cells pre-incubated with the dimeric knob
Ad3-GFP virus = assay: Competition of Ad3-GFP virus infection on HeLa cells; assay type: cell-based, adenovirus serotype 3 (Ad3); settings: HeLa cells pre-incubated with knob, 100 pfu/cell Ad3-GFP, GFP at 18 hours
Protocol: FIG. 3. Competition of Ad3 virus by dimerized Ad3 knob mutants. A) Relative attachment of ^3H-labeled Ad3 virus in the presence of dimeric fiber knob mutants. 1.8×10^5 HeLa cells were incubated with Ad3 knob mutants at a concentration of 2.5 and 100 μg/ml on ice for 1 hour. Then 400 pfu/cell of ^3H-Ad3 virus was added on ice for another hour. Unbound virus particles were washed away. Attachment of virus particles incubated with PBS was taken as 100%. N=3. B) Competition of Ad3-GFP virus infection on HeLa cells. 1.5×10^5 HeLa cells were seeded into 24 well plates. Cells were incubated with the Ad3 knob mutants at increasing concentrations for one hour at room temperature. 100 pfu/cell of Ad3-GFP virus were then added and GFP expression was analyzed 18 hours later by flow cytometry. Left panel: percentage of GFP positive cells. Right panel: mean fluorescence intensity. N=3. The standard deviation was less than 10%. C) Relative attachment of ^3H-labeled Ad3 virus in the presence of dimeric fiber knob mutants with multiple mutations. The study was performed as described in […]) The standard deviation was less than 10%. D) Competition of Ad3-GFP virus infection on HeLa cells. The study was performed as described in C) The standard deviation was less than 10%.
FIG. 9. Analysis of dimeric Ad3 fiber knob mutants with increased affinity to DSG2. A) Competition of Ad3-GFP virus infection on HeLa cells with dimeric affinity-enhanced mutant Y250F and JO-1 (dimeric wt Ad3 fiber knob). The experimental setting is as described for FIG. 3C. left panel: percentage of GFP positive cells. Right panel: mean fluorescence intensity. N=3. The standard deviation was less than 10%. […] 100 pfu/cell of Ad3GFP virus were then added and GFP expression was analyzed 18 hours later. […]
Competition studies were performed on HeLa cells, which express DSG2 (42). […] Transduction was measured based on GFP expression (FIG. 3B). […] Dimeric Ad3 knob mutants with combined mutations were also analyzed for their ability to compete with Ad3 virus for attachment (FIG. 3C) and infection (FIG. 3D).

soluble recombinant DSG2 = target: T3, soluble recombinant DSG2; assay: Western blot of dimeric Ad3 fiber knob mutants probed with soluble DSG2; assay type: binding; settings: purified dimerized knob mutants
Excerpt: FIG. 1. Residues found to be critically involved in binding to DSG2. A) Shown are the amino acid sequences of the Ad3 and Ad14p1 fiber knob. Beta sheets present in the Ad3 knob (PDB accession number 1H7Z_A) and Ad14 knob (PDB: 3F0Y_A) are indicated by lines. Black arrows indicate residues within the Ad3 fiber knob which, when mutated individually, ablate or reduce binding to DSG2. […] B) Schematic structure of dimeric Ad3 fiber knob mutants. The fiber knob domain and one shaft motif was fused through a flexible linker to a homodimerizing K-coil domain (41). The proteins are self-dimerizing and can be purified by His-Ni-NTA affinity chromatography. C-F) Analysis of binding of dimeric Ad3 fiber knob mutants to soluble DSG2. C and D) Coomassie staining. 10 μg of purified Ad3 fiber knob (unboiled) were loaded per lane. Trimeric forms of the fiber knobs are indicated by an arrow. The gel contained SDS and the loading buffer containing DTT, which caused the disassembly of dimers of trimeric fiber knobs as previously reported (41). E and F): Western blot using soluble recombinant DSG2 as a probe, followed by anti-DSG2-mAb and anti-mouse IgG-HRP. For comparison, JO-1 (0.5 μg/lane) is shown. The Western blots were scanned and signals were quantified.
Mini-PROTEAN precast gels (BIO-RAD, Hercules, Calif.) with 4-15% gradient polyacrylamide were used. A total of […] protein mixed with 2× loading buffer (10 mM Tris-HCl, pH6.8, 200 mM DTT, 4% SDS, 20% glycerol, 0.2% bromophenol blue) was loaded per lane. Samples were either boiled (B) for 5 min or loaded unboiled (UB). The following running buffer was used: 25 mM Tris, pH8.3, 0.192 M glycine, 0.1% SDS. After electrophoresis, proteins were transferred to nitrocellulose and incubated with recombinant human DSG2 protein and anti-DSG2 antibodies as described previously (42). The Western blots were scanned and quantified using the ImageJ 1.32 software (National Institutes of Health, Bethesda, Md.). JO-1 band intensity was set as 100%. […]

Row | Molecule | Western blot residual DSG2 binding (wtAd3 knob = 100%) [1] [%] | binding result [2] | Inhibition of infection in the presence of dimeric knob (JO-1 = 100%) [3] [%] | Inhibition of attachment in the presence of dimeric knob (JO-1 = 100%) [4] [%] | Competition of Ad3-GFP infection based on GFP expression (Ad3-GFP virus) | DSG2 binding in Western blot compared to JO-1 (soluble recombinant DSG2)
1 | dimeric Ad3 fiber knob mutant D261N (designed binder) MKVSALKEKVSALKEKVSALKEKVSALKEKVSALKEGSGGGSGGGSGGGSNSIALKNNTLWTGPKPEANCIIEYGKQNPDSKLTLILVKNGGIVNGYVTLMGASDYVNTLFKNKNVSINVELYFDATGHILPDSSSLKTDLELKYKQTADFSARGFMPSTTAYPFVLPNAGTHNENYIFGQCYYKASNGALFPLEVTVMLNKRLPDSRTSYVMTFLWSLNAGLAPETTQATLITSPFTFSYIREDD | 0 | no binding | 5.3 | 45 | – | –
2 | F265L (protein) MKVSALKEKVSALKEKVSALKEKVSALKEKVSALKEGSGGGSGGGSGGGSNSIALKNNTLWTGPKPEANCIIEYGKQNPDSKLTLILVKNGGIVNGYVTLMGASDYVNTLFKNKNVSINVELYFDATGHILPDSSSLKTDLELKYKQTADFSARGFMPSTTAYPFVLPNAGTHNENYIFGQCYYKASDGALLPLEVTVMLNKRLPDSRTSYVMTFLWSLNAGLAPETTQATLITSPFTFSYIREDD | – | – | – | – | least reduced | almost completely ablated for DSG2 binding
3 | dimeric Ad3 fiber knob mutant F265L (designed binder) MKVSALKEKVSALKEKVSALKEKVSALKEKVSALKEGSGGGSGGGSGGGSNSIALKNNTLWTGPKPEANCIIEYGKQNPDSKLTLILVKNGGIVNGYVTLMGASDYVNTLFKNKNVSINVELYFDATGHILPDSSSLKTDLELKYKQTADFSARGFMPSTTAYPFVLPNAGTHNENYIFGQCYYKASDGALLPLEVTVMLNKRLPDSRTSYVMTFLWSLNAGLAPETTQATLITSPFTFSYIREDD | 0 | no binding | 17.6 | 55.6 | – | –
